Source: the supplement of paper PMC10065799, “High-throughput profiling of sequence recognition by tyrosine kinases and SH2 domains using bacterial peptide display” (eLife, 2023)

Key:
SHP2-C SH2 = experiment: SH2 binding enrichment of the phosphorylated peptide, bacterial display (enrichment ratio); higher = better substrate or ligand; peptides without Tyr show the background
c-Src SH2 = experiment: as above
Grb2 SH2 = Grb2 SH2 (UniProt P62993); experiment: as above
AncSZ = experiment: phosphorylation enrichment, bacterial display (enrichment ratio); higher = better substrate or ligand; peptides without Tyr show the background
Fyn = Fyn (UniProt P06241); experiment: as above
Hck = Hck (UniProt P08631); experiment: as above
c-Src = experiment: as above
FGFR1 = FGFR1 (UniProt P11362); experiment: as above
FGFR3 = FGFR3 (UniProt P22607); experiment: as above
Fes = Fes (UniProt P07332); experiment: as above
Jak2 = Jak2 (UniProt O60674); experiment: as above
MERTK = MERTK (UniProt Q12866); experiment: as above
Fer (mouse) = experiment: as above
EPHB2 = EPHB2 (UniProt P29323); experiment: as above
c-Abl (mouse) = experiment: as above
EPHB1 = EPHB1 (UniProt P54762); experiment: as above
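For SH2 binding enrichment of the phosphorylated peptide, bacterial display in this document: peptide library displayed on the E. coli surface as eCPX fusions, selected cells deep-sequenced, score is each peptide's frequency after selection divided by its frequency in the input.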
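For phosphorylation enrichment, bacterial display in this document: 11-residue human phosphosite peptides and single-mutation variants displayed on the E. coli surface, counted by deep sequencing, each peptide's frequency after selection divided by its frequency in the unselected input library; frequency after pTyr selection over input frequency; kinase dosed for 20-30% of maximal phosphorylation in three min.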

Chain of MERTK (Q12866 whole entry, looked up): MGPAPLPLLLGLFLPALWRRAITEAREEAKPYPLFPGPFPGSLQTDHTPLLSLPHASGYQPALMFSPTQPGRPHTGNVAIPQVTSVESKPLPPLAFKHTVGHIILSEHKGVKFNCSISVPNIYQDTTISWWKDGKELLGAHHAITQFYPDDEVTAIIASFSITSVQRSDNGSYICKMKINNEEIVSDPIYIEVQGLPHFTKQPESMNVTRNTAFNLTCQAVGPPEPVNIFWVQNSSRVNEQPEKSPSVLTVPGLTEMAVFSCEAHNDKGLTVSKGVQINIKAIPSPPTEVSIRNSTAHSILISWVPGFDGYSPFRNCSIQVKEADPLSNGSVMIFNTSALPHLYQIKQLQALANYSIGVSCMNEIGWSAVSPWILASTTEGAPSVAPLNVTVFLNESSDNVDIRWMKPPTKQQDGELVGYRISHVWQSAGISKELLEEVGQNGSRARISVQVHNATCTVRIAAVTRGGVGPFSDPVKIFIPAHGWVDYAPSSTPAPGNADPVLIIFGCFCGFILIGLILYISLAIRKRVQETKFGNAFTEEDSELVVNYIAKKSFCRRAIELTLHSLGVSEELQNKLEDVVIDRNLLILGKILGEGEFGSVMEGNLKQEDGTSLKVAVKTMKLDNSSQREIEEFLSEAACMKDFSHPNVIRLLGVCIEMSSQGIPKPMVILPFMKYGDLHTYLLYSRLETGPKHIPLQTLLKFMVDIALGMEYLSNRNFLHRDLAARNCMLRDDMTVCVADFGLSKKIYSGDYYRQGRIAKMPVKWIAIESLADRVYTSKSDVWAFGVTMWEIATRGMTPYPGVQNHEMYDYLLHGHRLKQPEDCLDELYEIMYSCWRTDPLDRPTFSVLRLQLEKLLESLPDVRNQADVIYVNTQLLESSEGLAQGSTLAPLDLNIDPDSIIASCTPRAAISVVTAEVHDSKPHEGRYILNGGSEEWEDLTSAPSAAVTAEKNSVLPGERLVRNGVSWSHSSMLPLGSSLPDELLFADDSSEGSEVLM
Chain of EPHB2 (P29323 whole entry, looked up): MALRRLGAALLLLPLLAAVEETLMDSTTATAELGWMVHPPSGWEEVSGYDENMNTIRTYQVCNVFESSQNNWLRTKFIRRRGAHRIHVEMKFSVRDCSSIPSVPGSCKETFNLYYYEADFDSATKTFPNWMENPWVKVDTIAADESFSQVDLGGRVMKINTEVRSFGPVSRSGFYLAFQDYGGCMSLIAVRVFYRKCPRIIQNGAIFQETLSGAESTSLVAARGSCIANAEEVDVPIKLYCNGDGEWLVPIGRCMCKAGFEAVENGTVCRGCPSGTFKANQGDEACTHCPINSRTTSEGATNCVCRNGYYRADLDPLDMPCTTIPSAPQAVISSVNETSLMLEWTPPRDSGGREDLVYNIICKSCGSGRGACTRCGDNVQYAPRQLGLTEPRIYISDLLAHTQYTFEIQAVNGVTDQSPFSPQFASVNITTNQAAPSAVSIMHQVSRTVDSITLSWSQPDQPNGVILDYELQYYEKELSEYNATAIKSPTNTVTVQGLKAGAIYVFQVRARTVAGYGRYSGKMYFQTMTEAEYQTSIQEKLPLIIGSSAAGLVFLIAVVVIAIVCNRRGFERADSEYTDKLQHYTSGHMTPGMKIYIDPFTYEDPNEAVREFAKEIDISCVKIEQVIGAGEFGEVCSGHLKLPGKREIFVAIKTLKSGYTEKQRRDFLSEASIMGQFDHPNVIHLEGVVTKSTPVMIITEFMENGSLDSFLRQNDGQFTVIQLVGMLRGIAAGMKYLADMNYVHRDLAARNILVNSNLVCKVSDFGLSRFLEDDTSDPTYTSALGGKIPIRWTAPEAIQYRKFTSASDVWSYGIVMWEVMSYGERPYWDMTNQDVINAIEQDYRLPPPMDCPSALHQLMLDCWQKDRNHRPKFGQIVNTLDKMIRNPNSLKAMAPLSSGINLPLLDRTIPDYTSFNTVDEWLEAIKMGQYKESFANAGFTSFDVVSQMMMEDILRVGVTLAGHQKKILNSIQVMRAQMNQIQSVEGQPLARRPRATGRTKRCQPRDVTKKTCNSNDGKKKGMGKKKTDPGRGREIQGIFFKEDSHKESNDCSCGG
Chain of Jak2 (O60674 whole entry, looked up): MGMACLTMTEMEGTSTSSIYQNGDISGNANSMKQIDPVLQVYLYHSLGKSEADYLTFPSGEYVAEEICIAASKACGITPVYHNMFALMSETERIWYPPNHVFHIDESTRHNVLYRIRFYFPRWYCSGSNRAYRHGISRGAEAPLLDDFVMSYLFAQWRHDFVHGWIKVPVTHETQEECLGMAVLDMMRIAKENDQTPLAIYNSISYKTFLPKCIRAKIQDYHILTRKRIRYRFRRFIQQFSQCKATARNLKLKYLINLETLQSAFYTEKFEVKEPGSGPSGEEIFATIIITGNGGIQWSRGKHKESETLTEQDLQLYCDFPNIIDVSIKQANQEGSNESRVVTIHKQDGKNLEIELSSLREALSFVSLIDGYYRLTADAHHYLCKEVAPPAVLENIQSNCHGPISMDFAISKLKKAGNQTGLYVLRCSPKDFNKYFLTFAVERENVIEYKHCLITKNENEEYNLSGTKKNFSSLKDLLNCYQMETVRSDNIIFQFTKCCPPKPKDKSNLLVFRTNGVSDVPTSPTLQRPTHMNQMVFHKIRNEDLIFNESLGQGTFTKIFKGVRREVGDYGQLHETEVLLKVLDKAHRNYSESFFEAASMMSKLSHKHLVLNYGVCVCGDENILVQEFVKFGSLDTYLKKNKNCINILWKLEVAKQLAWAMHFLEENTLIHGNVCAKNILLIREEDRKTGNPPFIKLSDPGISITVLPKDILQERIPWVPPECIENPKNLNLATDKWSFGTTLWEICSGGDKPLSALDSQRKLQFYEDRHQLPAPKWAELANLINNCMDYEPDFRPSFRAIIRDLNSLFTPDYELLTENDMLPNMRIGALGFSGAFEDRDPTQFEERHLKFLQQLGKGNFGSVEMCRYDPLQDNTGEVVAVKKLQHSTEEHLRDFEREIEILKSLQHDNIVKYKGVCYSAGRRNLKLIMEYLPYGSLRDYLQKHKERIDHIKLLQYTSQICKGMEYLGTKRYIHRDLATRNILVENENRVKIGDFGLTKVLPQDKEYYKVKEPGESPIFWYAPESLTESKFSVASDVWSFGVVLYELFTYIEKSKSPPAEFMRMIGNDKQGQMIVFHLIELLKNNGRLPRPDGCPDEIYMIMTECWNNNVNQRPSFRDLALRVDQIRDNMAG
Chain of EPHB1 (P54762 whole entry, looked up, the tested form may be a part): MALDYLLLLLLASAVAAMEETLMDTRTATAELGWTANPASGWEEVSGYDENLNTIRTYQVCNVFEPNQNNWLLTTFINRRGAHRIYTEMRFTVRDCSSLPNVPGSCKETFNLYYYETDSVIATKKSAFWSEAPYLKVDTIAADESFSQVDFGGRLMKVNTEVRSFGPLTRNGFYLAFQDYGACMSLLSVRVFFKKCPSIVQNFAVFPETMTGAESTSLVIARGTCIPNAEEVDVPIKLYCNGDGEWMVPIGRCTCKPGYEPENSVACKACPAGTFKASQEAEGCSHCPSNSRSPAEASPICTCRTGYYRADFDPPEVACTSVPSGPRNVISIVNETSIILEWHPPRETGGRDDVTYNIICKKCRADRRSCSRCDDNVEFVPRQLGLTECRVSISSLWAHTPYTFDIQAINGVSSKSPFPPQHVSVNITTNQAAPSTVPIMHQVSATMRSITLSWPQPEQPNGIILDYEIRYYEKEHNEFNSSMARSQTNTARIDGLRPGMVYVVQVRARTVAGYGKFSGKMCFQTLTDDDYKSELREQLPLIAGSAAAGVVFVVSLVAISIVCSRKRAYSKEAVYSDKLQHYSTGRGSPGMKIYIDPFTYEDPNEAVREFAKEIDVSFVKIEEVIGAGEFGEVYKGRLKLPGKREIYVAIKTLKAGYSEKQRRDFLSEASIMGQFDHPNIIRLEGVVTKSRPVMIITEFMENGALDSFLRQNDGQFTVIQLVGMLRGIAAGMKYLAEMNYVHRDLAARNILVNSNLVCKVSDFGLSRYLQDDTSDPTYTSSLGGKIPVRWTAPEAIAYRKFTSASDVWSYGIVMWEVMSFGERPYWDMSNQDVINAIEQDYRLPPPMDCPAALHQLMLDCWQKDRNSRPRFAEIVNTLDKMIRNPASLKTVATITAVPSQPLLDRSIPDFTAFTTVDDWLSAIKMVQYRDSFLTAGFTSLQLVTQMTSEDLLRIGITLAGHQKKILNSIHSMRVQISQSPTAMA
Chain of FGFR3 (P22607 whole entry, looked up): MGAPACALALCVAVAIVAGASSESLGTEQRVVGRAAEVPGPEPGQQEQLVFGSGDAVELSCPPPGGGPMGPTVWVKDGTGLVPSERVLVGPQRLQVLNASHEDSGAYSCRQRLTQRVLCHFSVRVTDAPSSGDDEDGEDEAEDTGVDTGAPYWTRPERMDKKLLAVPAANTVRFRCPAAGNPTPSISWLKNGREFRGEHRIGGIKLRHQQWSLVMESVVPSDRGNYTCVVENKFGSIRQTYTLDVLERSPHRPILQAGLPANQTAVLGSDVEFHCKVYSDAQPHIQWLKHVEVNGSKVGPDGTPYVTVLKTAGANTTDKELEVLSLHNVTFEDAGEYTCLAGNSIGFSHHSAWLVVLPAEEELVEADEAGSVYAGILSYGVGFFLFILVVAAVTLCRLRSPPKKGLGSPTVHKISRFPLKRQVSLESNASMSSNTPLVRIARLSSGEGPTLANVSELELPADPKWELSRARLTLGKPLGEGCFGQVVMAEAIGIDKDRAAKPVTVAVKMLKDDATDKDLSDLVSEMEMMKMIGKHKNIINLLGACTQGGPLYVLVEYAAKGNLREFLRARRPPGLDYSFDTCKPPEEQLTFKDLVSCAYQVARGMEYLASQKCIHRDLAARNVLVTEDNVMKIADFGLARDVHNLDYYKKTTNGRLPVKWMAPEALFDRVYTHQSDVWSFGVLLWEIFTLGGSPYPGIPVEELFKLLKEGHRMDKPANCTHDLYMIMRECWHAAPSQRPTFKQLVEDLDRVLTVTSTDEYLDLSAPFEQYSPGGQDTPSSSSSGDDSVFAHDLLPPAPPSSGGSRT

| SH2 binding enrichment (SHP2-C SH2) | SH2 binding enrichment (c-Src SH2) | SH2 binding enrichment (Grb2 SH2) | Sequence | phosphorylation enrichment (AncSZ) | phosphorylation enrichment (Fyn) | phosphorylation enrichment (Hck) | phosphorylation enrichment (c-Src) | phosphorylation enrichment (FGFR1) | phosphorylation enrichment (FGFR3) | phosphorylation enrichment (Fes) | phosphorylation enrichment (Jak2) | phosphorylation enrichment (MERTK) | phosphorylation enrichment (Fer (mouse)) | phosphorylation enrichment (EPHB2) | phosphorylation enrichment (c-Abl (mouse)) | phosphorylation enrichment (EPHB1) |
| --- | --- | --- | --- | --- | --- | --- | --- | --- | --- | --- | --- | --- | --- | --- | --- | --- |
| 0.498 | 0.539 | 0.888 | DQLVKYGVNPG [TMPO_Y127] | 0.553 | 0.369 | 0.363 | 0.294 | 0.292 | 0.49 | 0.605 | 0.479 | 0.314 | 0.356 | 0.325 | 0.475 | 0.467 |
| 1.92 | 1.86 | 1.95 | LHRAHYDLHHT [AHSG_Y314_R317H] | 0.836 | 0.637 | 0.553 | 0.505 | 0.511 | 0.857 | 1.01 | 0.646 | 0.496 | 1.36 | 0.674 | 0.781 | 0.69 |
| 0.955 | 1.16 | 0.983 | VATRWYQSPEL [CDKL5_Y177_R178Q] | 1 | 0.43 | 0.578 | 0.443 | 0.88 | 0.754 | 0.832 | 0.566 | 0.679 | 0.531 | 0.774 | 0.512 | 0.508 |
| 0.642 | 0.569 | 0.829 | YGGLRCGYGVL [KRTAP20-2_Y13_Y13C] | 0.857 | 1 | 1.5 | 1.05 | 0.826 | 0.632 | 1.01 | 0.794 | 0.369 | 0.473 | 0.543 | 0.589 | 0.623 |
| 0.713 | 0.359 | 0.65 | DPGVSYHTREE [PDHA1_Y301_R302H] | 0.677 | 0.483 | 0.551 | 0.41 | 0.452 | 0.548 | 0.764 | 0.465 | 0.405 | 0.383 | 0.429 | 0.399 | 0.351 |
| 0.948 | 2.77 | 0.884 | IRTIDYRYTVC [IDS_Y497_W502C] | 0.965 | 0.51 | 0.561 | 0.461 | 0.555 | 0.754 | 1.02 | 0.965 | 0.478 | 0.572 | 0.52 | 0.65 | 0.653 |
| 0.987 | 0.489 | 0.86 | SISLKYEGRVF [ABL1_Y167_R166K_YF] | 1.05 | 0.477 | 0.553 | 0.398 | 0.482 | 0.771 | 1.31 | 1.13 | 0.382 | 0.565 | 0.609 | 0.661 | 0.655 |
| 0.604 | 0.452 | 0.692 | YDGKDYIALNE [HLA-A_Y147] | 1.41 | 0.532 | 0.583 | 0.48 | 0.843 | 0.953 | 1.27 | 1.18 | 0.457 | 0.551 | 0.792 | 0.909 | 1.06 |
| 0.886 | 0.536 | 0.802 | SGAWSYNTSTE [SELE_Y24] | 0.788 | 0.499 | 0.379 | 0.378 | 0.52 | 0.621 | 0.748 | 0.881 | 0.447 | 0.382 | 0.502 | 0.55 | 0.458 |
| 0.649 | 0.651 | 0.869 | SNKLFYQLEQE [PDPR_Y110_YF] | 1.25 | 1.45 | 0.641 | 1.91 | 0.588 | 0.692 | 1.39 | 1.3 | 0.508 | 0.583 | 0.738 | 0.791 | 0.628 |
| 0.691 | 0.893 | 1.34 | RRNVFYFSFLL [PTEN_Y177_Y174N_YF] | 1.81 | 0.984 | 0.923 | 1.29 | 0.743 | 0.709 | 1.62 | 1.69 | 0.937 | 0.852 | 1.03 | 2.83 | 0.998 |
| 0.732 | 0.613 | 0.86 | LESILYESSVV [TRPV4_Y91_T89I] | 1.65 | 1.22 | 1.65 | 1.14 | 0.725 | 0.825 | 1.39 | 1.23 | 0.678 | 7.52 | 0.719 | 1.01 | 0.607 |
| 0.878 | 0.512 | 1.16 | PPGRSYSPFDF [TNS1_Y793_YF] | 0.824 | 0.635 | 0.6 | 0.497 | 0.505 | 0.75 | 0.81 | 0.843 | 0.598 | 1.1 | 0.599 | 0.602 | 0.4 |
| 0.866 | 0.565 | 0.742 | TSGVVYKARNK [CDK2_Y19_Y15S] | 0.53 | 0.359 | 0.462 | 0.516 | 0.354 | 0.447 | 0.661 | 0.427 | 0.479 | 0.519 | 0.358 | 0.51 | 0.392 |
| 0.397 | 0.572 | 0.868 | RRAKGYPINLF [ITGB2_Y125_D128N_YF] | 0.49 | 0.435 | 0.448 | 0.554 | 0.448 | 0.465 | 0.571 | 0.603 | 0.476 | 0.454 | 0.613 | 0.537 | 0.576 |
| 0.944 | 0.82 | 1.44 | IRKVLYANNVM [ACTA1_Y296_D294V] | 0.569 | 0.286 | 0.297 | 0.325 | 0.567 | 0.395 | 0.599 | 0.637 | 0.328 | 0.337 | 0.368 | 0.529 | 0.311 |
| 1.15 | 0.634 | 0.829 | QLAPQYTFAQG [FLNA_Y1761_YF] | 0.734 | 0.259 | 0.443 | 0.599 | 0.561 | 0.42 | 0.564 | 0.512 | 0.457 | 0.471 | 0.523 | 0.691 | 0.344 |

| SH2 binding enrichment (SHP2-C SH2) | SH2 binding enrichment (c-Src SH2) | SH2 binding enrichment (Grb2 SH2) | Sequence | phosphorylation enrichment (AncSZ) | phosphorylation enrichment (Fyn) | phosphorylation enrichment (Hck) | phosphorylation enrichment (c-Src) | phosphorylation enrichment (FGFR1) | phosphorylation enrichment (FGFR3) | phosphorylation enrichment (Fes) | phosphorylation enrichment (Jak2) | phosphorylation enrichment (MERTK) | phosphorylation enrichment (Fer (mouse)) | phosphorylation enrichment (EPHB2) | phosphorylation enrichment (c-Abl (mouse)) | phosphorylation enrichment (EPHB1) |
| --- | --- | --- | --- | --- | --- | --- | --- | --- | --- | --- | --- | --- | --- | --- | --- | --- |
| 0.752 | 0.497 | 0.677 | ATKNDYWAMLA [WWOX_Y287_P282A] | 1.17 | 0.384 | 0.453 | 0.418 | 6.01 | 3.97 | 1 | 1.02 | 0.499 | 0.452 | 1.15 | 0.881 | 1.72 |
| 0.871 | 5.92 | 0.928 | NTGGYYDLYGG [PTPN11_Y63_D61G] | 1.51 | 8.66 | 8.38 | 5.05 | 13.3 | 10.8 | 1.18 | 5.82 | 7.92 | 3.33 | 3.74 | 0.756 | 1.98 |
| 1.83 | 1.2 | 0.959 | YMRGMYFRMTD [PLA2G6_Y541_K545T] | 1.21 | 0.434 | 0.578 | 0.427 | 0.592 | 0.908 | 1.16 | 1.41 | 0.773 | 0.481 | 0.566 | 0.771 | 0.63 |
| 0.885 | 0.608 | 0.891 | SSTASYFKAPG [RFX2_Y108_E110K] | 0.598 | 0.4 | 0.431 | 0.394 | 0.548 | 0.474 | 0.619 | 0.53 | 0.415 | 0.339 | 0.394 | 0.418 | 0.471 |
| 1.15 | 0.655 | 0.936 | PSQRRYLFFFS [PTEN_Y174_V175L_YF] | 1.86 | 0.753 | 0.716 | 0.441 | 0.607 | 0.915 | 1.93 | 1.74 | 0.756 | 0.531 | 0.804 | 0.991 | 0.818 |
| 0.564 | 0.455 | 1.15 | RELGKYGLQAY [ALDH2_Y497_E496K] | 0.683 | 0.464 | 0.455 | 0.356 | 0.426 | 0.47 | 0.72 | 0.543 | 0.457 | 0.475 | 0.402 | 0.581 | 0.403 |
| 0.658 | 0.514 | 0.911 | KEAVLYPHLPP [SQSTM1_Y383_A381V] | 0.566 | 0.415 | 0.385 | 0.464 | 0.444 | 0.646 | 0.727 | 0.659 | 0.422 | 0.363 | 0.579 | 0.798 | 0.409 |
| 0.664 | 0.43 | 0.887 | KDYETYQPFQN [CTNND2_Y1157] | 1.72 | 6 | 6.07 | 4.83 | 0.686 | 0.801 | 1.17 | 0.883 | 0.514 | 1.47 | 7.67 | 0.846 | 3.29 |
| 0.699 | 0.474 | 0.837 | SDVLSYGVTMW [ZAP70_Y525_W523L] | 0.922 | 0.449 | 0.475 | 0.531 | 0.493 | 0.642 | 1.03 | 1.04 | 0.342 | 0.523 | 0.604 | 0.645 | 0.626 |
| 0.644 | 0.664 | 0.739 | RQNNSYTCYTA [SLC20A2_Y386_R382Q] | 1.11 | 0.58 | 0.694 | 0.915 | 0.557 | 0.659 | 0.897 | 0.787 | 0.476 | 0.528 | 0.76 | 0.582 | 0.597 |
| 0.811 | 2.85 | 1.03 | YDCGMYSHLQG [LGR4_Y848] | 1.47 | 2.36 | 5.59 | 3.69 | 1.04 | 1 | 1.21 | 0.944 | 7.03 | 2.87 | 1.29 | 2.38 | 1.5 |
| 0.669 | 0.469 | 1.02 | FADIAYNYRQG [PAH_Y166_H170Q] | 0.75 | 0.482 | 0.507 | 0.522 | 0.412 | 0.728 | 0.872 | 0.661 | 0.43 | 0.471 | 0.454 | 0.594 | 0.713 |
| 0.61 | 0.703 | 0.89 | SLHPGYNFRFA [P2RX7_Y291_Y288H_YF] | 0.852 | 0.378 | 0.432 | 0.385 | 0.364 | 0.524 | 0.904 | 0.765 | 0.394 | 0.434 | 0.417 | 0.57 | 0.573 |
| 0.741 | 0.437 | 0.863 | ADFFDYGHGLS [KHDRBS3_Y304_YF] | 0.709 | 0.438 | 0.522 | 0.449 | 0.459 | 0.727 | 0.905 | 1.03 | 0.434 | 0.433 | 0.38 | 0.76 | 0.585 |
| 0.578 | 0.551 | 0.831 | MHFSNYVSKGS [PDGFRA_Y849_D846Y_YF] | 0.522 | 0.495 | 0.457 | 0.384 | 0.394 | 0.565 | 0.578 | 0.489 | 0.381 | 0.367 | 0.439 | 0.406 | 0.604 |
| 1.15 | 0.8 | 1.35 | FVSLIYTNFEA [GSTP1_Y109_I105V_YF] | 1.78 | 5.96 | 3.31 | 5.94 | 0.962 | 1.05 | 1.46 | 1.18 | 5.37 | 3.18 | 0.91 | 2.22 | 1.13 |
